What was measured:
[1] = system: Fas/APO1 cytotoxicity (p55-Fas chimera) in 293-EBNA cells; assay type: cell-based, human; conditions: co-transfection
Protocol: (§1) In brief, 293-EBNA cells, MCF7 human breast carcinoma cells and HeLa HtTA-1 cells were grown in Dulbecco's modified Eagle's minimal essential medium supplemented with 10% fetal calf serum, nonessential amino acids, 100 U/ml penicillin and 100 μg/ml streptomycin. Cell tissue culture dishes (5×10^5 293-EBNA cells, 3×10^5 s MCF7 cells or 3×10^5 HeLa cells in 6-cm dishes) were transiently transfected, using the calcium phosphate precipitation method, with the cDNAs of the indicated proteins together with the β-galactosidase expression vector. In the experiments presented in FIGS. 14A-D and 15, each dish was transfected with 3.5 μg of the indicated MACH construct and 1.5 μg of pSV-β-gal. In the experiments presented in FIGS. 16A-D and 17-19, each dish was transfected with 2.5 μg of the indicated MACH or MORT1 construct (or, as control, empty vector) and 1.5 μg of pSV-β-gal. The cells were rinsed 6 to 10 h after transfection. The 293-EBNA and MCF7 cells were incubated for a further 18 h without additional treatment. […] The extent of cell death at the end of the incubation periods was assessed by determination of β-galactosidase expression, as described by Kumar et al, 1994. […]
(§2) In particular, FIGS. 16A-D show morphology of 293-EBNA cells in which cell death was induced by transient expression of a chimera comprised of the extracellular domain of the p55-R (amino acids 1-168) fused to the transmembrane and intracellular domains of Fas/APO1 (amino acids 153-319) (p55-Fas chimera) (FIGS. 16A and 16B), or by expression of the p55-R (FIGS. 16C and 16D), and of cells that were protected from these cytotoxic effects by their simultaneous transfection with MACHα1 (C360S) (FIGS. 16B and 16D). […] FIG. 17 illustrates the quantification of death induced in 293-EBNA cells by their transfection with p55-Fas chimera or with p55-R, together with an empty vector, a MORT1 deletion mutant lacking the MACH-binding region (MORT1 (92-208)), or MACHα molecules containing a nonfunctional CED3/ICE region. […] Data are from at least two independent experiments and are expressed as in FIGS. 14A-F and 15.

[2] = system: Fas/APO1-induced death of HeLa cells; test: Death of HeLa cells expressing Fas/APO1 induced by anti-Fas/APO1 antibody and cycloheximide; assay type: cell-based, human; conditions: HeLa cells transiently expressing Fas/APO1; CH11 0.5 μg/ml, cycloheximide 10 μg/ml
Protocol: In brief, 293-EBNA cells, MCF7 human breast carcinoma cells and HeLa HtTA-1 cells were grown in Dulbecco's modified Eagle's minimal essential medium supplemented with 10% fetal calf serum, nonessential amino acids, 100 U/ml penicillin and 100 μg/ml streptomycin. Cell tissue culture dishes (5×10^5 293-EBNA cells, 3×10^5 s MCF7 cells or 3×10^5 HeLa cells in 6-cm dishes) were transiently transfected, using the calcium phosphate precipitation method, with the cDNAs of the indicated proteins together with the β-galactosidase expression vector. In the experiments presented in FIGS. 14A-D and 15, each dish was transfected with 3.5 μg of the indicated MACH construct and 1.5 μg of pSV-β-gal. In the experiments presented in FIGS. 16A-D and 17-19, each dish was transfected with 2.5 μg of the indicated MACH or MORT1 construct (or, as control, empty vector) and 1.5 μg of pSV-β-gal. The cells were rinsed 6 to 10 h after transfection. The 293-EBNA and MCF7 cells were incubated for a further 18 h without additional treatment. The HeLa cells were incubated for 26 h after transfection and-then for 5 h in the presence of either anti-Fas.APO1 antibody (CH11, 0.5 μg/ml) or TNF (100 ng/ml), together with cycloheximide (10 μg/ml). The extent of cell death at the end of the incubation periods was assessed by determination of β-galactosidase expression, as described by Kumar et al, 1994.
The HeLa cells were made responsive to Fas/APO1 by transient expression of this receptor. […] These protective effects indicate that MACHα is a necessary component of both the Fas/APO1- and the p55-R-induced signaling cascades for cell death.
In particular, FIGS. 16A-D show morphology of 293-EBNA cells in which cell death was induced by transient expression of a chimera comprised of the extracellular domain of the p55-R (amino acids 1-168) fused to the transmembrane and intracellular domains of Fas/APO1 (amino acids 153-319) (p55-Fas chimera) (FIGS. 16A and 16B), or by expression of the p55-R (FIGS. 16C and 16D), and of cells that were protected from these cytotoxic effects by their simultaneous transfection with MACHα1 (C360S) (FIGS. 16B and 16D). Photographs were taken 26 h after transfection. FIG. 17 illustrates the quantification of death induced in 293-EBNA cells by their transfection with p55-Fas chimera or with p55-R, together with an empty vector, a MORT1 deletion mutant lacking the MACH-binding region (MORT1 (92-208)), or MACHα molecules containing a nonfunctional CED3/ICE region. […] Data are from at least two independent experiments and are expressed as in FIGS. 14A-F and 15.

[3] = system: p55-R-induced cytotoxicity in 293-EBNA cells; test: Death of 293-EBNA cells induced by over-expression of p55-R; assay type: cell-based, human; conditions: co-transfection
Protocol: as §1, §2

MORT-1 = biological target: T1, MORT-1 (Homo sapiens, UniProt Q13158, G32V); test: Two-hybrid test (FIG. 1), binding to full-length MORT-1; parameters: expressed in transfected cells; host or cells: SFY526 yeast
T1 sequence (Q13158 with tags, fused parts or gaps G32V): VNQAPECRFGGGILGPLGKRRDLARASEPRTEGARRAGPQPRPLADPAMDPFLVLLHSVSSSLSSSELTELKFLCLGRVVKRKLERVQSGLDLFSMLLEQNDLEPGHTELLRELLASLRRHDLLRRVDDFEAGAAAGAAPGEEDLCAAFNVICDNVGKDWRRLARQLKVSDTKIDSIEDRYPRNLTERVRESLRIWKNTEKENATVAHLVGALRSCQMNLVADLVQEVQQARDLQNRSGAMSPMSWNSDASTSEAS
Excerpt: To isolate proteins interacting with the intracellular domain of the FAS-R, the yeast two-hybrid system was used (Fields and Song, 1989). […] In this system, the genes for the candidate interacting proteins are cloned into separate expression vectors. In one expression vector, the sequence of the one candidate protein is cloned in phase with the sequence of the GAL4 DNA-binding domain to generate a hybrid protein with the GAL4 DNA-binding-domain, and in the other vector, the sequence of the second candidate protein is cloned in phase with the sequence of the GAL4 activation domain to generate a hybrid protein with the GAL4-activation domain. The two hybrid vectors are then co-transformed into a yeast host strain having a lacZ or HIS3 reporter gene under the control of upstream GAL4 binding sites. Only those transformed host cells (cotransformants) in which the two hybrid proteins are expressed and are capable of interacting with each other, will be capable of expressing the reporter gene. In the case of the lacZ reporter gene, host cells expressing this gene will become blue in color when X-gal is added to the cultures.
(b) retransforming the plasmid DNA and original FAS-IC hybrid plasmid and control plasmids described in (a) into yeast host cells of strain SFY526 and determining the LACZ^+ activity (effectivity of β-gal formation, i.e., blue color formation).
In FIG. 1, there is depicted the interaction of the proteins encoded by the Gal4 DNA binding domain and activation-domain constructs (pGBT9 and pGAD-GH) within transfected SFY526 yeasts as assessed by β-galactosidase expression filter assay. The DNA-binding-domain constructs included four constructs of the human Fas-IC, four constructs of the mouse Fas-IC including two full-length constructs having […] or Ile to Ala replacement mutations at position 225 (I225N and I225A, respectively), and three MORT-1 constructs, all of which are shown schematically on the left hand side of FIG. 1. […]

B1: MACHα1 (C360S): MACHα1 mutant in which the catalytic cysteine Cys360 is replaced by Ser (protein)
chain: MDFSRNLYDIGEQLDSEDLASLKFLSLDYIPQRKQEPIKDALMLFQRLQEKRMLEESNLSFLKELLFRINRLDLLITYLNTRKEEMERELQTPGRAQISAYRVMLYQISEEVSRSELRSFKFLLQEEISKCKLDDDMNLLDIFIEMEKRVILGEGKLDILKRVCAQINKSLLKIINDYEEFSKERSSSLEGSPDEFSNGEELCGVMTISDSPREQDSESQTLDKVYQMKSKPRGYCLIINNHNFAKAREKVPKLHSIRDRNGTHLDAGALTTTFEELHFEIKPHDDCTVEQIYEILKIYQLMDHSNMDCFICCILSHGDKGIIYGTDGQEAPIYELTSQFTGLKCPSLAGKPKVFFIQASQGDNYQKGIPVETDSEEQPYLEMDLSSPQTRYIPDEADFLLGMATVNNCVSYRNPAEGTWYIQSLCQSLRERCPRGDDILTILTEVNYEVSNKDDKKNMGKQMPQPTFTLRKKLVFPSD
- protection against Fas/APO1 cytotoxicity (p55-Fas chimera) [1]: protected
- protection against death induced by anti-Fas/APO1 antibody and cycloheximide [2]: prevention
- protection against p55-R-induced cytotoxicity [3]: protected

B2: MORT-1: Mediator of Receptor-induced Toxicity; protein binding the intracellular domain of FAS-R, SEQ ID NO:2 (protein)
chain: T1 sequence (Q13158 with tags, fused parts or gaps G32V)
- binding to full-length MORT-1 in two-hybrid test (MORT-1): binds to itself

Reference: US7799901B2, “Modulators of the function of FAS receptors and other proteins” (Yeda Research and Development Co. Ltd., priority 1995, dated 2010)
